# Experimental data reported in article PMC11036266.
# Target: Human VEGF165 (human) (UniProt P15692)
# Test: ELISA; human VEGF165 coated on MaxiSorp plates (0.4 µg/mL in PBS, pH 7.4, overnight); aflibercept samples added as 2-fold serial dilutions (1000.0-1.0 ng/mL) in 4% milk powder in PBS-T, RT, 1.5 h; detected with anti-human IgG γ chain-HRPO; EC50 by four-parametric log model
# Human VEGF165 (human), sequence (P15692 other isoform, or with tags, fused parts or gaps): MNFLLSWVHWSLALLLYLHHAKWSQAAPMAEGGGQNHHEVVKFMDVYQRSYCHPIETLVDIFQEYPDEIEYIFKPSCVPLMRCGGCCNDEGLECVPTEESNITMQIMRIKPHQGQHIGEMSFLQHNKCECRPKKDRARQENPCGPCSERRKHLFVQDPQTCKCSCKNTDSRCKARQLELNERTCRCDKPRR
# Aflibercept with sialylated N-glycans (AFLI^Sia), isolated from total soluble protein (Fc fusion), sequence (chain): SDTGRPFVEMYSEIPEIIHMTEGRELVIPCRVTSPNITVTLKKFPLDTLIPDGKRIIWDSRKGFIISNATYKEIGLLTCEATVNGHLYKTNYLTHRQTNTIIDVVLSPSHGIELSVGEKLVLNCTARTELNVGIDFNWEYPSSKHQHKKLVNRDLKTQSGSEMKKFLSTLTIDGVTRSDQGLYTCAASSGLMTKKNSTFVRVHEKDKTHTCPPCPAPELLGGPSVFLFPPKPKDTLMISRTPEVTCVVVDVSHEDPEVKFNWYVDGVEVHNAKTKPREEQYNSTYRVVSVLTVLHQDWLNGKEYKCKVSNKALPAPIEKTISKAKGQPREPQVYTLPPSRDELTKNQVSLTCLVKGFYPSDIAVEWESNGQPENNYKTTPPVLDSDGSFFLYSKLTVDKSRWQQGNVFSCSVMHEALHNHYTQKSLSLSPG
# Aflibercept with GlcNAc-terminated N-glycans (AFLI^GnGn), isolated from total soluble protein (Fc fusion), sequence (chain): as above
# Aflibercept with sialylated N-glycans (AFLI^Sia), isolated from intercellular fluid (Fc fusion), sequence (chain): as above
row,EC50 [nM],Substance
1,0.242,"Aflibercept with GlcNAc-terminated N-glycans (AFLI^GnGn), isolated from total soluble protein (Fc fusion)"
2,0.358,"Aflibercept with sialylated N-glycans (AFLI^Sia), isolated from intercellular fluid (Fc fusion)"
3,0.31,"Aflibercept with sialylated N-glycans (AFLI^Sia), isolated from total soluble protein (Fc fusion)"
